# Changes are numbered by the printed parent chain. In names and notes the source's numbering stands.
# T1: hIFNγRβ.SG.hFc (human, UniProt P38484 28-246)
# T1 construct: also called pCTR 2828; not shown: hinge, CH2 and CH3 regions of human IgG1 (hFc)
# T1 sequence: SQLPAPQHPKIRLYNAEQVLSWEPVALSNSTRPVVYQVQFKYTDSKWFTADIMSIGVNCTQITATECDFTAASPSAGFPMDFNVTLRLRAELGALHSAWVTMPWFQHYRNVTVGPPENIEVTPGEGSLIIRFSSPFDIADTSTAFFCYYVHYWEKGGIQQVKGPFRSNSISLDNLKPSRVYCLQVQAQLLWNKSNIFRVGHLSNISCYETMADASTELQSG
# B1: human interferon γ (ligand, UniProt P01579 24-166, looked up)
# chain: QDPYVKEAENLKKYFNAGHSDVADNGTLFLGILKNWKEESDRKIMQSQIVSFYFKLFKNFKDDQSIQKSVETIKEDMNVKFFNSNKKKRDDFEKLTNYSVTDLNVQRKAIHELIQVMAELSPAAKTGKRKRSQMLFRGRRASQ
# notes: Injected in solution over captured fusion proteins (BiaCore); Recombinant human IFNγ at 4 pM in the luciferase bioassays; also called IFNγ; human IFNγ
# B2: hIFNγRβ(C174S).SG.hFc (Fc fusion)
# chain: T1 sequence with C147S
# notes: also called pCTR 2848; not shown: hinge, CH2 and CH3 regions of human IgG1 (hFc)
# B3: hIFNγRβ.TG.hIFNγRα(1-239).SG.hFc (Fc fusion)
# chain: SQLPAPQHPKIRLYNAEQVLSWEPVALSNSTRPVVYQVQFKYTDSKWFTADIMSIGVNCTQITATECDFTAASPSAGFPMDFNVTLRLRAELGALHSAWVTMPWFQHYRNVTVGPPENIEVTPGEGSLIIRFSSPFDIADTSTAFFCYYVHYWEKGGIQQVKGPFRSNSISLDNLKPSRVYCLQVQAQLLWNKSNIFRVGHLSNISCYETMADASTELQTGMALLFLLPLVMQGVSRAEMGTADLGPSSVPTPTNVTIESYNMNPIVYWEYQIMPQVPVFTVEVKNYGVKNSEWIDACINISHHYCNISDHVGDPSNSLWVRVKARVGQKESAYAKSEEFAVCRDGKIGPPKLDIRKEEKQIMIDIFHPSVFVNGDEQEVDYDPETTCYIRVYNVYVRMNGSEIQYKILTQKEDDCDEIQCQLAIPVSSLNSQYCVSAEGVLHVWGVTTEKSKEVCITIFSG
# notes: PCTR number 2843 is printed for two different constructs (r17 and r19); also called pCTR 2843; R2-R1-Fc; not shown: hinge, CH2 and CH3 regions of human IgG1 (hFc)
# B4: hIFNγRα(1-239).SG.hFc (Fc fusion, not shown: a dimerising Fc or GST)
# chain: EMGTADLGPSSVPTPTNVTIESYNMNPIVYWEYQIMPQVPVFTVEVKNYGVKNSEWIDACINISHHYCNISDHVGDPSNSLWVRVKARVGQKESAYAKSEEFAVCRDGKIGPPKLDIRKEEKQIMIDIFHPSVFVNGDEQEVDYDPETTCYIRVYNVYVRMNGSEIQYKILTQKEDDCDEIQCQLAIPVSSLNSQYCVSAEGVLHVWGVTTEKSKEVCITIFSG
# B5: hIFNγRα(1-239).TG.hFc.ARA.hIFNγRβ (Fc fusion, not shown: a dimerising Fc or GST)
# chain (part 1 of 2): B4 chain with S223T
# chain (part 2 of 2): ARASQLPAPQHPKIRLYNAEQVLSWEPVALSNSTRPVVYQVQFKYTDSKWFTADIMSIGVNCTQITATECDFTAASPSAGFPMDFNVTLRLRAELGALHSAWVTMPWFQHYRNVTVGPPENIEVTPGEGSLIIRFSSPFDIADTSTAFFCYYVHYWEKGGIQQVKGPFRSNSISLDNLKPSRVYCLQVQAQLLWNKSNIFRVGHLSNISCYETMADASTELQ
# Assays:
# [1] = molecular target: B5; test: BiaCore (SPR), fusion captured by anti-human Fc, human IFNγ injected; R1-Fc-R2 configuration
# Procedure: (§1) The affinity of the interferon γ-binding fusion polypeptides for human interferon γ was measured using a BlAcore 2000™ or BlAcore 3000™, as described in WO 00/75319, herein specifically incorporated by reference in its entirety. Briefly, the IFNγ-specific polypeptides were produce as small-scale supernatants by transiently transfecting CHO cells, using Lipofectamine/LIPO Plus® (Life Technologies), with DNA constructs encoding the proteins. Supernatants were collected after 72 hours and protein expression was measured by Western blotting with anti-human Fc HRP-conjugated antibody (Promega) and visualized by ECL (Pierce). Briefly, 5.4×10⁵ CHOK1 cells per well of a 6 well tissue culture dish were transfected using 1 μg of DNA and 5 μl of lipofectamine in OptiMEM™ (Gibco). After 12 h the cells were washed with OptiMEM™ and 2 ml of CHO serum free medium (Gibco) was added. After 60 h and 72 h the media was collected and centrifuged to remove cellular debris. For the BiaCore™ analysis, the IFNγ-binding fusion polypeptides from the transiently transfected CHO supernatants were captured onto the chip surface using anti-human Fc antibodies. Various concentrations of human IFNγ are injected over the surface and the time course of association and dissociation are monitored. Kinetic analyses using BIA evaluation software were performed to obtain the association and dissociation rate constants.
# hIFNγRα(1-239).SG.hFc = molecular target: B4; test: BiaCore (SPR), fusion from CHO supernatant captured by anti-human Fc, human IFNγ injected
# Procedure: as §1
# hIFNγRβ.SG.hFc = molecular target: T1, hIFNγRβ.SG.hFc; test: BiaCore, fusion captured by anti-human Fc, human IFNγ injected
# Procedure: as §1
# human interferon γ [2] = molecular target: B1; test: as above
# Procedure: as §1
# human interferon γ [3] = molecular target: B1; test: cell-based or functional assay
# human interferon γ [4] = molecular target: B1; test: BiaCore (SPR), fusion captured by anti-human Fc, human IFNγ injected; R2-R1-Fc configuration
# Procedure: as §1
"IC50 (M), GAS-luciferase bioassay in HEK293 cells (human interferon γ [3])","IC50 (M), ISRE-luciferase bioassay in HEK293 cells (human interferon γ [3])",Binder,other results
,,B1,Kd [1]: > 10 nM; Kd (hIFNγRα(1-239).SG.hFc): 6 nM; binding result (hIFNγRβ.SG.hFc): no binding
,,B2,binding result (human interferon γ [2]): no binding
9.8e-09 M,1.46e-08 M,B3,Kd (human interferon γ [4]): > 10 nM
7.9e-09 M,6.2e-09 M,B4,
1.6e-08 M,8e-07 M,B5,

# Reference: US20070020283A1 (Regeneron, published 2007)
